Test results: patent US5989875A, “Method of process for producing L-lysine by fermentation” (priority 1995, dated 1999)

Test system: DDPS
Test: Enzyme activity of DDPS and inhibition by L-lysine (cell-free extract)
Assay type: biochemical, E. coli
Settings: for Inhibition of DDPS by L-lysine: various concentrations of L-lysine added, FIG. 2
Procedure: Mutant pdapA2's were recovered from the 36 strains described above. A dapA-deficient strain, JE7627 was transformed with them and the wild type pdapA2, respectively. A cell-free extract was prepared from each of the transformed strains, and the enzyme activity of DDPS was measured.
The cell-free extract (crude enzyme solution) was prepared as follows. A transformed strain was cultivated in a 2 x TY medium (1.6% Bacto trypton, 1% Yeast extract, 0.5% NaCl), and collected at an optical density at 660 nm (OD660) of about 0.8. A cell pellet was washed with 0.85% NaCl under a condition of 0° C., and suspended in 20 mM potassium phosphate buffer (pH 7.5) containing 400 mM KCl. The cells were disrupted by sonication (0° C., 200 W, 10 minutes). A disrupted cell solution was centrifuged at 33 krpm for 1 hour under a condition of 0° C. to obtain a supernatant to which ammonium sulfate was added to give 80% saturation to be stored at 0° C. overnight followed by centrifugation. A pellet was dissolved in 20 mM potassium phosphate buffer (pH 7.5)-400 mM KCl.
The enzyme activity of DDPS was measured in accordance with a method of Yugari et al. (Yugari, Y. and Gilvarg, C., J. Biol. Chem., 240, 4710 ([…])). Namely, the absorbance of a reaction solution having the following composition was measured at 37° C. with a spectrophotometer at a wavelength of 270 nm in a time-course manner, and generated dihydrodipicolinate was measured. Sodium pyruvate was removed from the reaction system to be used as a blank.
In measurement of the enzyme activity of DDPS, various concentrations of L-lysine were added to the enzyme reaction solutionand the degree of inhibition by L-lysine was examined.

Row | Molecule | Inhibition of DDPS by L-lysine | Specific activity of DDPS as compared with the wild type (cell-free extract of JE7627 transformants)
1 | wild type DDPS: wild type dihydrodipicolinate synthase of E. coli, SEQ ID NO:4 (protein) MFTGSIVAIVTPMDEKGNVCRASLKKLIDYHVASGTSAIVSVGTTGESATLNHDEHADVVMMTLDLADGRIPVIAGTGANATAEAISLTQRFNDSGIVGCLTVTPYYNRPSQEGLYQHFKAIAEHTDLPQILYNVPSRTGCDLLPETVGRLAKVKNIIGIKEATGNLTRVNQIKELVSDDFVLLSGDDASALDFMQLGGHGVISVTTNVAARDMAQMCKLAAEEHFAEARVINQRLMPLHNKLFVEPNPIPVKWACKELGLVATDTLRLPMTPITDSGRETVRAALKHAGLL | suffered inhibition by L-lysine | 
2 | pdapAS24 (protein) MFTGSIVAIVTPMDEKGNVCRASLKKLIDYHVASGTSAIVSVGTTGESATLNHDEHADVVMMTLDLADGRIPVIAGTGANATAEAISLTQRFNDSGIVGCLTVTPYYNRPSQEGLYQYFKAIAEHTDLPQILYNVPSRTGCDLLPETVGRLAKVKNIIGIKEATGNLTRVNQIKELVSDDFVLLSGDDASALDFMQLGGHGVISVTTNVAARDMAQMCKLAAEEHFAEARVINQRLMPLHNKLFVEPNPIPVKWACKELGLVATDTLRLPMTPITDSGRETVRAALKHAGLL | desensitized | lowered a little
